Source: PMC9129042 (PLoS ONE, 2022)

Target: WA-1 NTD probe (SARS-CoV-2 WA-1, UniProt P0DTC2, biotin on the AVI tag (…))
Test: BLI
Conditions: both partners purified

B1: 5–7 (antibody, V domains shown)
VH: QVQLVQSGAEVKKPGASVKVSCKASGYTFTSYYMHWVRQAPGQGLEWMGVINPSGGSTSYAEKFRGRVTMTRDTSTSTVYMELSSLRSEDTAVYYCARDREPHSDSSGYWDSLKYYYYYALDVWGQGTTVTVSS
VL: AIQLTQSPSSLSASVGDRVTITCRASQGISSYLAWYQQKPGKAPELLIYAASTLQSGVPSRFSGSGSGTDFTLTISSLQPEDFATYYCQQLNTYPFTFGPGTKVDIK
notes: also called antibody 5-7
binding result: binds
